This test has as its target T1, mouse Toll-like receptor 2 (mouse, UniProt Q9QUN7 25-784).
T1 construct: whole, on cells; also called murine TLR2; TLR2
The test is described as follows: anti-His whole-mount immunofluorescence of mouse maxillary gingival tissue (oral tissue that expresses TLR2) 24 h after oral lavage with scaTLR2-secreting Lactobacillus. Here is the method:
The ability of Lactobacillus transformants to secrete functional single chain antibody (scAb) in the oral cavity, and the ability of the scAb to bind to oral tissue that express TLR2 was next assessed. Mice were administered by one oral lavage the following Lactobacillus transformants: EV (empty vector transformed, negative control), scahTLR4 (single chain antibody against human TLR4, negative control), and scaTLR2 (single chain antibody against TLR2). After 24 h the mice were sacrificed, Lactobacillus persistence was assessed by culturing viable bacteria and enumerating CFU, and the maxillary gingival tissues were processed for whole mounting and stained with an antibody to the His-tag present in the single chain antibodies Similar Lactobacillus CFU were recovered in all three groups. […] In the control groups there was no detection of His-positive staining (FIG. 7A-B). Therefore, scaTLR2 is secreted by the transformed Lactobacilli in vivo, and avidly binds to oral mucosal tissue.

T1 sequence (Q9QUN7 25-784): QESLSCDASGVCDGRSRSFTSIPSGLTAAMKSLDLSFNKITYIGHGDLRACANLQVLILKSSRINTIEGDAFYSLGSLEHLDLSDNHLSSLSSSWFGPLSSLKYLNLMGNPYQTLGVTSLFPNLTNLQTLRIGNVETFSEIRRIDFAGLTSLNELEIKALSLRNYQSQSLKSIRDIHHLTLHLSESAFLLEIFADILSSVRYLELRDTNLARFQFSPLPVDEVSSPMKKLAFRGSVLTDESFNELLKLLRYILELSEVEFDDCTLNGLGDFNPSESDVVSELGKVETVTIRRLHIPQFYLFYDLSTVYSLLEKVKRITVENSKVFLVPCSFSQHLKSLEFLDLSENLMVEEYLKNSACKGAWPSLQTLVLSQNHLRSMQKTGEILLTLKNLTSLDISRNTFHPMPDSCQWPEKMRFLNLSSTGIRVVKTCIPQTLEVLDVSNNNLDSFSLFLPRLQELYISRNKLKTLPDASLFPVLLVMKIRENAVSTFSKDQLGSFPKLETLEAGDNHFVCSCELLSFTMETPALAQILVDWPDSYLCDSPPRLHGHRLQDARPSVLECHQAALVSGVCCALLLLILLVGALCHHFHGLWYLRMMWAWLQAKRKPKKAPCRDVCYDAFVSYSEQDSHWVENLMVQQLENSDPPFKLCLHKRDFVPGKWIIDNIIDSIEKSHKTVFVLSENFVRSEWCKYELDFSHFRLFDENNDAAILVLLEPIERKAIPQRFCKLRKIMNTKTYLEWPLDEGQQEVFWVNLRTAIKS

B1: anti-TLR2 single chain antibody (scAb) secreted by transformed Lactobacillus, built from the variable regions of mAb T2.5 (scFv)
scFv: QVQLQQSGPELVNPGASVKLSCKASGFTFTTYGINWVKQGPGQGLEWIGWIYPRDGSTNFNENFKDKAALTVDTSSSTAYMELHSLTSEDSAVYFCARLTGGTFLDYWGQGTTVTVSSGGGGSGGGGSGGGGSDIELTQSPASLAVSLGQRATISCRASESVEYYGTSLMQWYQQKPGQPPKLLIFGASNVESGVPVRFSGSGSGTDFSLNIHPVEEDDIVMYFCQQSRKLPWTFGGGTKLEIKR
notes: also called scaTLR2; anti-TLR2 scAb
Consider B1, for which the binding result was “binds”.

The values are drawn from patent US20210393711A1 (YISSUM RESEARCH DEVELOPMENT COMPANY OF THE HEBREW …, published 2021).
